Source: the DeepSol protein solubility set

Assay: soluble on expression in E. coli; label from the status in PepcDB or PDB records

| Sequence | soluble on expression in E. coli |
| --- | --- |
| MPPRPRMLAAAITAALALGAQAVPAAAADGPAGDSTATTSRGVEIPAFYTPPSELPAADGTLIRHEPLPLALSLPGIDGPLPGRATRLMYKSTDANGEAVAVTGAYVEPAAKWRGDGPRPLVAVAPGTMGQGDQCAASMALEHPLQLNGQTVSVGYEDLSVYRLLLRGVAVVVTDYVGLGTTDRLHTYVNRVDGAHAVLDAVRAARSLDSASVTSDSRVGLFGYSQGGGATAAAAELQPSYAPDVQLAGTYAGAPPADLTEVTKAIDGSDLAGALGWSLNGFLQTEPALRPIADRYINEAGQEALKDLSTMCVGDALFGYGGDSSTDWTRTGQSISDVIRAEPALQSFLAEQRIGSTAPGSPVRVATGVSDDLVPHGQARRLAVDWCGKGGKVTYVPVLIPGVGSGLLNHFAPLLADQGNAIAWLTDRLSGEPAGSNCWSMPVQPLEHHHHHH | soluble |
| MKFSESVPLYKQPLSIPAEQLPQPDLNRNLPLSKYFLMMKTPEIGFQKAEVRDVLLRKVVLNEIEKIPAIWNCKNTYNANKLYPEVAVQVYRRTGTLLHTKMVQMVFKTAKDSLRNRLRDAISRKGLNEVDTEAHLLEWEYYPFVRFYREVSEGWEDRMRKTKQLEKREPAGGVGIVGDDENSMDVEEEPYENPDIIWDDVADPESPTTSMSSTLTSTQGTFTDYHPEEPYHNPEPPLIHPTLEYAAMKTASLQRNQQNKHVMEVRHGSETRTVVVMPTEPPRQQLNAPDFAEEMLQVTYQATRIAREQPERVKLLRKALFDTVLAFDQKEYNCVADLYRDLAEKSSR | not soluble |
| MSQYSLQVGLTPEGPCSYLPKQKERLAVVMEQELHTALGYQALIRLGFRRSGETIYKPMCEHCDACKPLRINANQFKPSKSQKRLLNKLSSFRWELKSEMDGNWFDLYERYINTRHKTGSMYPANQKQFFEFSHSHWLTNQFLHIYENETLIAIAVSDVLSDSISAMYTFFEPEHPLSLGTISVLIQLKLCKELSKEWLYPGYQIDDCPAMKYKDQYKPNQKLVNMVWQGLEHHHHHH | soluble |
| MGSDKIHHHHHHMSEALNVDIQEIAKFEKMAATWWDPDGEFKPLHQLNPLRLNYIDQTSGGLFGKKVLDVGCGGGILSESMARLGANVTGIDMGNEPLEVARLHALETGVSLNYERCTAEEHREVNREAYDVVTCMEMLEHVPDPLSVIAACCDMVKPGGYVFFSTINRNLRSYVETILGAEYLLKMLPVGTHDHGKFIRPSELIAMVDQTELLCKDATGVTYNPITGTFRYTSSVEVNYMIATVKPLE | not soluble |
| AFTFLHTADLHLDAPLRAVALRDPELAAEIGVASRTAFSRIVDLCLAEAVAFLVIAGDLWDGTYSSTKTPRFLKQELLRLEAAGIGCYILRGNHDALARQTGELEAPANTTVFGARPSTVELSIDGQPVALHGLSFREPHAPESLLPRYPAPKPGAFNLGLMHTSLNGSPGHDPYAPCSLAELEAHGYDYWALGHIHRRFVHRGRATVVMPGTPQGRDIGEAGAASVTLVQVGDDGAVTLEERSVA | not soluble |
| MGSDKIHHHHHHMNLPTAHPLIDEATLTIVVCHILDSKTATLGEWHSEAIAHHIINNVTAGLQRITGIANNGSEQLSWSVILKILHLQPENAGSIFNSSQDPTHWNYWQREALIYTSGMLDNLTGDLVAPRCFGITEPSANVVWLWLEDIQGSSGSTWTMERFGLAARHLGYLQGSYVMAQSLPYEPWLSRGWHRAWVSNIDNTALEAWREPAVWQHPLLKEIFSPDIGDRVMDLWSDRHILLDAVDKAPHTLCHFDITPNNLFSRHNPDGNDQTVLIDWSFVGYGVLGEDIINLVLDSVFLLFVNGSSLIPLEKLVLEGYLTGLRSAGWNGDERIVRFTYAALAALHFGLIAGRLLKLVQNESRHSWLEQRFGRTFDEIITSRAIAITHGLELADEARLLLPSLFVIN | not soluble |
| GPGSMASKKQADGSKDIGDAAWREKLTTQEYRVLRQKATDPPFGAYNTHFETGTYHCAGCGTLLYKSSMKFPCECGWPAFFDCVPLAVREEPDSDGVRTEILCNACGGHLGHVFRGEGFNNPPPNERHCVNGTAIRFQSEK | soluble |
| SKRRRCKGKNMTKNLLVELGLEELPAYVVTPSEKQLGEKMAAFLGENRLSYESIQTFSTPRRLAVRVLGLADQQTDLTEDFKGPSKKIALDADGNFSKAAQGFVRGKGLTVDDIEFREVKGEEYVYVTKHEAGKSAKEVLAGIPEVLASLTFPVSMHWANNSFEYIRPVHTLIVLLGDEALELDFLGIKSGRVSRGHRFLGHEVEITNADSYEEDLRTVYVIANSKERENMIREQIKAIEAEQGVQVQIEEGLLNEVLNLVEYPTTFMGGFDTKYLDVPEDVLVTSMETHQRYFVVRDLDGRLKPNFISVRNGNAEHLENVVRGNEKVLVARLEDGEFFWREDQKLKIEDLVAKLANVTFHEKIGSLSEHMARAGVIAASLAEKAGLTAEEKAAVARAAEIYKFDLLTGMVGEFDELQGIMGEKYALLAGEDEAVATAIREHYLPDSADGALPETKVGAILALADKLDTLLSFFSVGLIPSGSNDPYALRRATQGIVRILDAFGWHIPMDELIDSLYGLSFDSLSYDNQAEVIRFIKARVDKMMGSTPKDIKEAVLSGSNFV | not soluble |
| GMSTQENVQIVKDFFAAMGRGDKKGLLAVSAEDIEWIIPGEWPLAGTHRGHAALAALLQKASEMVEISYPEPPEFVAQGERVLVVGFATGRVKSTNRTFEDDWVFAITVRKSKVTSIREYIDTLALARATNFNAT | soluble |
| SEEDIDTRKINNSFLRDHSYATEADIISTVEFNHTGELLATGDKGGRVVIFQREQESKNQVHRRGEYNVYSTFQSHEPEFDYLKSLEIEEKINKIRWLPQQNAAYFLLSTNDKTVKLWKVSERDKRPEGYNLKDEEGRLRDPATITTLRVPVLRPMDLMVEATPRRVFANAHTYHINSISVNSDYETYMSADDLRINLWNFEITNQSFNIVDIKPANMEELTEVITAAEFHPHHCNTFVYSSSKGTIRLCDMRASALCDRHTKFFEEPEDPSNRSFFSEIISSISDVKFSHSGRYIMTRDYLTVKVWDLNMENRPIETYQVHDYLRSKLCSLYENDCIFDKFECVWNGSDSVIMTGSYNNFFRMFDRNTKRDVTLEASRENSKPRAILKPRKVCVGGKRRKDEISVDSLDFSKKILHTAWHPSENIIAVAATNNLYIFQDKVN | not soluble |
| GPGSMFQRSLWRFFAHLVREVDTAGFAGDFRRLHHVGAASTQTQAREARHAACNVLFCGHHGTGKLNLLKAIGLQCEKKGQRVAFVSADNQRAARLDGYLINFFIGMRVSRDELPSQEQLEGTLERHVRLVESTFASSFPSLRNIDVLILDALELVQPTVLLSMDAVARRLRGQPRTPFGGLRVYAAADFWRLPVHPTSDTGGYLFQLEQWEVLFPLQTLLRKSHVQKEEELRRLTELAFYGALTLPQMKELEKLSMKEKPESRLFSWSSSTMEAEKSTATATEGEDEEGEIEEEDAMSIAQWTSFPGESAAADLPDGPEGALEATKDDEGAVNDPAAGQTSLSSSSSALALLNDDMASNSFVATRMMLRFPRQPAVKEMPLRYRQLKRTEMGNFLVNMLVHSSSATSVGLVDSLSVDVGSRVHLLLDGQEHYGVPGGAVGEVMQVGPHFLSIHFPREHRTVDIPRMRVVCYHPFYPEIRYELQQFPVFPRKRICPMNILTYPHAFFVNLNGRRMADTNDLGNLLAHQRSFADFTTRNTSDFANLDGMVHEPTRIYYHKISGKPISTAREQWCRNCKQFVPTDSFFEHWATCVHSVRWCIDCNQTVSLELLGPHREKHQVVLCLDCGRPVEWRHWEGHRLSCGPMMREVSTDNQFIPLRTRQLALEMGLDKRDLHTVASITKSSLPKPREGVL | not soluble |
| MTGQAAGPAAGPAAGQATKHAGGRRPGETRTREAILTAARVCFAERGFDATSLRRIAETAGVDQSLVHHFYGTKENLFLQALELPGKIEEAITAAAQGGLDGIGERVVRAHLSVWDDVSSRPALMTMVRSAAIHRAAAARLRETATGILARALGGVITGEDAMLRTSMVATQLVGLAMMRYVAHLEPLASADTDTVARHYGRAVQAIVTDRD | soluble |
| MGSDKIHHHHHHMALIEGFRVRNYRALRDITLGRLSAEQQGDPLTPFTVVIGKNGVGKSTLFDAFGFVADCLSKDVESACDDKQRGGFERMRSLGTEESIRFDIYYREAKGERPITYELAINLDSSGRPFVESEVLKQRRKGQKHGRPYPFLRLHHGVGKVWAGEEAVETSSGEEDRAQEDVELTDLRQLGIATLGTLKEHPRIKRFRDFLKGWHLSYFHPDSARSIPSAGAQRHLDVHGENIGNVVQYMEREHKERFKTILDRIAAKIPGVHSIRTTVTQDKRVLLQFNDGAFNDPFYAGQMSDGTLKIFAYLLLMEDPEPPPFICIEEPENGLYHRLLDSLASELRSHATGKKNAPQIFVTTHQPYFVDALSTKEVWILEKGKNGFSTICRASDIDLVRNLVEEGLPLGGLWYGDYLDTK | not soluble |
| MSAEVLVYRGSLVENRHRVSLALWGPEGLVAYAGDPGRVAYLRSSAKPFQALALYLTGAVERFGLTEEEVALATASHDGTPRHVEVAARFLGKLGLGPEHLVCGVHPPFSREARAALEAQGLAPTPLHHNCSGKHAGMLAAALALGAPAEGYHLPDHPVQRLNLATLEALSGARPGLATDGCSVPTFALSLARAARAFFLLADPGRAPEAYRTPLLRVREAMRRHPDLVAGPGSVDTLLMERLPVVAKRGADGYYGLALLEGPRGPLGVALKVEDGATLAREVAVVALLRALGLDPGKTPWDRPPVRNHRGLEVGHLEARLGLVWV | soluble |
| MKFSVLMSLYIKENPQFLRECFESLVAQTRQADEIVLVFDGVVTPDLEFVVTEFETKLPLKLVKLPQNRGLGKALNEGLLHCDYDWVFRMDTDDICVPDRFEKQVAFIEQHPESIIFGGQIAEFGKNVNDIVAYRNVPTSAQEIIKFTQKRCPFNHMTVAYQKSAVINCGGYEDLQEDYYLWIKLVAQGLYMANLPDILVYARVGNGMVLEHHHHHH | not soluble |
| MCGITGWVDWKEDLSNQHVILKKMANRIQHRGPDAEGFWFSPRAAFAHRRLIVIDPEGGAQPKTFRAGDYTYALTYNGEIYNFRELREQLQKCGHTFETHSDTEVLLHAYLEWKEDCVQHLNGIFAFALWDDQKQRLFLARDHLGVKPLFYTERNDSIIFGSEIKALLAHPSVPAEIDADGINEIFGLGLFRTPGCGVFKHIEEVRAGHSITFTRDKKVVTKYWNLESKVHTDSIEDTSSHILSILQDTVKRQLIADVPLVCMLSGGLDSSGITALAGKEFAAENKTLHTYSVDFVNSAKDFELTFARTGLDAPWVKRVSEHVGTSHHDIIVNAEELANHLFVPLRAKDLPSAGEMETSLYLLFCEMKKDATVALSGESADEVFGGYPWFHQEELLYVDKFPWLTNWKNTSPLLLHEISNQCNLENYIDTRFQEAILEVPTLEGESKKSAKQRQMFYLFLTRFLPFLLDRKDRMSMAVGFEVRVPFCDYRLVEYLWNVPFNIKSIDNIEKGILRRALKPALPDDVRNRRKSAYPTSQDPQYLQTIRHLSLDMCSNKNNPIFSLINHSTLLAIADGSNKEINNFEARSAMEYMLQVNEWLKTYHIHIA | not soluble |
| MDMDKRSSDLEAALRIVLQQTLNIVLQAQEKLPEANVVPSTPPTSPSTDIGEQMASFWNIPSPNPPATSATSSTSPEEEIPCICFNCWGNVAAAANSKTWKSPNQADFRSAAAPLTEEKSHA | not soluble |
| MGSDKIHHHHHHMRIILASSSPRRRQLMELLGIEFEVEKPDVEEEFLESPEETVRELSLRKAEWVFKKRKEEEILVIGSDTVVVLDGNILGKPESLEEAKGMLKKLSGKWHVVYTGVAFVSSETKDVIVSSTKVRFRELPESVIDYYVEKYRPLDKAGAYGIQDFAAVFVEKIEGDFFTVVGFPLGMVWQYLYEKGWWKVASKREDDKGGARVAFG | not soluble |
